According to patent publication US20220363757A1 (SYMPHOGEN A S, published 2022):

T1: human LAG-3 domain 1-2 Fc fusion, point mutation #46 Y99A (human, UniProt P18627 23-266)
T1 construct: not shown: human IgG1 Fc, AA P101-K330
T1 sequence: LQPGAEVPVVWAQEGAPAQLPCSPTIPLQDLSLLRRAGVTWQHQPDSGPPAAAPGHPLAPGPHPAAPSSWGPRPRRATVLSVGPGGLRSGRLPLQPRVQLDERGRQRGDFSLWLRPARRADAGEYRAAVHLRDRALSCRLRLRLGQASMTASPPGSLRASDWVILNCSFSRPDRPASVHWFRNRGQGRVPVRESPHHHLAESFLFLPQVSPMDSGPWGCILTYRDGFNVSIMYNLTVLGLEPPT

T2: human LAG-3 domain 1-2 Fc fusion, point mutation #4 S45A (human, UniProt P18627 23-266)
T2 construct: not shown: human IgG1 Fc, AA P101-K330
T2 sequence: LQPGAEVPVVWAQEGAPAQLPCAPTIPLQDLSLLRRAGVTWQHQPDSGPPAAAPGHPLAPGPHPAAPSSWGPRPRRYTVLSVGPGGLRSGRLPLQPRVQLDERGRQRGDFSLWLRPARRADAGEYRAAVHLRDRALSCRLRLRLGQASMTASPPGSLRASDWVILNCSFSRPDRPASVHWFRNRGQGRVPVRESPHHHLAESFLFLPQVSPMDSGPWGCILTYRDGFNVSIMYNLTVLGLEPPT

T3: human LAG-3 domain 1-2 Fc fusion, point mutation #5 P46A (human, UniProt P18627 23-266)
T3 construct: not shown: human IgG1 Fc, AA P101-K330
T3 sequence: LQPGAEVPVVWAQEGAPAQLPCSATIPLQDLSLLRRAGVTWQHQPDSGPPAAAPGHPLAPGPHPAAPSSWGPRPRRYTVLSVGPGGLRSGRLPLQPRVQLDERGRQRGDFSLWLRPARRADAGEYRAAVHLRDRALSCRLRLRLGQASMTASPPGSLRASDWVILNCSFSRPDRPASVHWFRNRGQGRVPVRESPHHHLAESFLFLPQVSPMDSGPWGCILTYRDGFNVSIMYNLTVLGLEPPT

T4: human LAG-3 domain 1-2 Fc fusion, point mutation #9 D52A (human, UniProt P18627 23-266)
T4 construct: not shown: human IgG1 Fc, AA P101-K330
T4 sequence: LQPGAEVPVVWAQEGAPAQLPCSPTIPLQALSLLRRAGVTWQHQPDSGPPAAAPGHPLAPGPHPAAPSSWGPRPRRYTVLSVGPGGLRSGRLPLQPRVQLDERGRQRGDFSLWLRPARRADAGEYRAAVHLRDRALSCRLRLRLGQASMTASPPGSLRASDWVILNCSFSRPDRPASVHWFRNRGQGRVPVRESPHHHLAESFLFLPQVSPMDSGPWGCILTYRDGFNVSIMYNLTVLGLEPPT

T5: human LAG-3 domain 1-2 Fc fusion, point mutation #37 S90A (human, UniProt P18627 23-266)
T5 construct: not shown: human IgG1 Fc, AA P101-K330
T5 sequence: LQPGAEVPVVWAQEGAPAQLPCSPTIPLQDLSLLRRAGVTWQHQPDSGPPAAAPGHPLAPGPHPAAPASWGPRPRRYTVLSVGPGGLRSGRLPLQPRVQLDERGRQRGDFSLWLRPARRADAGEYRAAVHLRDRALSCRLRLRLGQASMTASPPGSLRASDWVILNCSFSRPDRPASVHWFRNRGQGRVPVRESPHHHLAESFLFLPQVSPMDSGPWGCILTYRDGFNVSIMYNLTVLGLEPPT

T6: human LAG-3 domain 1-2 Fc fusion, point mutation #8 Q51A (human, UniProt P18627 23-266)
T6 construct: not shown: human IgG1 Fc, AA P101-K330
T6 sequence: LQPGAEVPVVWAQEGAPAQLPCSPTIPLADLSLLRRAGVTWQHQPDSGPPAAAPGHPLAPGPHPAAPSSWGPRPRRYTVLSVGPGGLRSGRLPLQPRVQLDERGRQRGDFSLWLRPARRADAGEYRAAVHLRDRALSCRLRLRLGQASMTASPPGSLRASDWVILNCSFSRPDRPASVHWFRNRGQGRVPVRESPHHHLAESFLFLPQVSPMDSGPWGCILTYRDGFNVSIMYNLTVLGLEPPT

T7: human LAG-3 domain 1-2 Fc fusion, point mutation #75 R141A (human, UniProt P18627 23-266)
T7 construct: not shown: human IgG1 Fc, AA P101-K330
T7 sequence: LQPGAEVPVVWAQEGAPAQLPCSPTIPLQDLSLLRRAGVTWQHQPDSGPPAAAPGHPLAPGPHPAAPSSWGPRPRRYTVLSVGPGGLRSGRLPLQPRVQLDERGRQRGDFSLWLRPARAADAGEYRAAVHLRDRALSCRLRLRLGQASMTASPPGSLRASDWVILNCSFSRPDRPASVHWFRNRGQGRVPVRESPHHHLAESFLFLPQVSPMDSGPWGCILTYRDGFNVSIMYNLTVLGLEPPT

T8: human LAG-3 domain 1-2 Fc fusion, point mutation #64 E124A (human, UniProt P18627 23-266)
T8 construct: not shown: human IgG1 Fc, AA P101-K330
T8 sequence: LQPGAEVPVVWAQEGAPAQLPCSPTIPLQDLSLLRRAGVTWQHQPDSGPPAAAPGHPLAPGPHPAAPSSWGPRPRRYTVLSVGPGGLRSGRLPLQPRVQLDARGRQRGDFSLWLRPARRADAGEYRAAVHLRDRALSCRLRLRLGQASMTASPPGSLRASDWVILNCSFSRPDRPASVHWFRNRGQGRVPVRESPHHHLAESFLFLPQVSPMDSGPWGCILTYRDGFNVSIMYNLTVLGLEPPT

T9: human LAG-3 domain 1-2 Fc fusion, point mutation #27 L80A (human, UniProt P18627 23-266)
T9 construct: not shown: human IgG1 Fc, AA P101-K330
T9 sequence: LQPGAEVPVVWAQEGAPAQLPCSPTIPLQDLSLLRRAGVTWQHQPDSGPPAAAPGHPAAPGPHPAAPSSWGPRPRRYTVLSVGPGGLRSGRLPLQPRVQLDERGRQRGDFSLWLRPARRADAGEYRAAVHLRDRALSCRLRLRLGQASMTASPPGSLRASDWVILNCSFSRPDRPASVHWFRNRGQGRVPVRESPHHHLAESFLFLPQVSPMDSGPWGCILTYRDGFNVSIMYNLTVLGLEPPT


Legend:
Assay in all cases: SPR, Fab over captured mutant LAG-3-Fc;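 further: fc fusion variants captured on anti-human IgG Fc sensor, Fab injected with association then dissociation phases, KD obtained from Langmuir one-to-one fit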
[1] = biological target: T1, human LAG-3 domain 1-2 Fc fusion, point …
[2] = biological target: T2, human LAG-3 domain 1-2 Fc fusion, point …
[3] = biological target: T3, human LAG-3 domain 1-2 Fc fusion, point …
[4] = biological target: T4, human LAG-3 domain 1-2 Fc fusion, point …
[5] = biological target: T5, human LAG-3 domain 1-2 Fc fusion, point …
[6] = biological target: T6, human LAG-3 domain 1-2 Fc fusion, point …
[7] = biological target: T7, human LAG-3 domain 1-2 Fc fusion, point …
[8] = biological target: T8, human LAG-3 domain 1-2 Fc fusion, point …
[9] = biological target: T9, human LAG-3 domain 1-2 Fc fusion, point …

Binder | KD mutant/KD wild type [1] | KD mutant/KD wild type [2] | KD mutant/KD wild type [3] | KD mutant/KD wild type [4] | KD mutant/KD wild type [5] | KD mutant/KD wild type [6] | KD mutant/KD wild type [7] | KD mutant/KD wild type [8] | KD mutant/KD wild type [9] | binding result [1] | binding result [3] | binding result [4] | binding result [8]
Fab fragment of antibody 15532 (Fab, V domains shown, not shown: a dimerising Fc or GST, monomeric Fab made by GingisKHAN digestion of the IgG1) VH: QVQLQQWGAGLLRPSETLSLTCAVYGESFSGYYWNWIRQPPGKGLEWIGEINHSGSTNYNPSLKSRVTISVDTSKTQFSLKLSSVTAADTAVYYCARGWDLLDWNDYWNEYWGQGTLVTVSS VL: EIVLTQSPATLSLSPGERATLSCRASQSVSSYLAWYQQKPGQAPRLLIYDASNRATGIPARFSGSGSGTDFTLTISSLEPEDFAVYYCQQRSNWPLTFGGGTKVEIKR | 4.1 fold | 1.7 fold | 4 fold | 1.7 fold | 0.6 fold | 0.9 fold | 0.7 fold | 1.8 fold | 0.6 fold | – | – | – | –
Fab fragment of antibody 15431 (Fab, V domains shown, not shown: a dimerising Fc or GST, monomeric Fab made by GingisKHAN digestion of the IgG1) VH: QVQLQQSGPGLVKPSQTLSLTCAISGDSVSSNSAAWNWIRQSPSRGLEWLGRTYYRSKWYNDYAVSVKSRITINPDTSKNQFSLQLNSVTPEDTAVYYCARDDDWNDFDYWGQGTLVTVSS VL: EIVLTQSPATLSLSPGERATLSCRASQSVSSYLAWYQQKPGQAPRLLIYDASNRATGIPARFSGSGSGTDFTLTISSLEPEDFAVYYCQQRSNWPLTFGGGTKVEIKR | – | 0.4 fold | – | – | 0.9 fold | 0.7 fold | 1 fold | – | 0.5 fold | no binding (tested: 300 nM) | no binding (tested: 300 nM) | no binding (tested: 300 nM) | no binding (tested: 300 nM)
Fab fragment of antibody 15011 (Fab, V domains shown, not shown: a dimerising Fc or GST, monomeric Fab made by GingisKHAN digestion of the IgG1) VH: EVQLLESGGGLVQPGGSLRLSCAASGFDFRSYAMMWVRQAPGKGLEWVGGINGEVGGSNTYYAPAVKGRATISRDNSKNTLYLQMNSLRAEDTAVYYCVKGAGACGICNDDIDAWGQGTLVTVSS VL: SYELTQDPAVSVALGQTVRITCSGAGSYAGSYYYGWHQQKPGQAPVTVIYDNDKRPSNIPDRFSGSSSGNTASLTITGAQAEDEADYYCGSTNDNDDGGLFGSGTKVTVLG | 0.5 fold | 0.7 fold | 0.7 fold | 0.7 fold | 0.9 fold | 0.8 fold | 1.1 fold | 0.8 fold | 0.8 fold | – | – | – | –
Fab fragment of antibody 15572 (Fab, V domains shown, not shown: a dimerising Fc or GST, monomeric Fab made by GingisKHAN digestion of the IgG1) VH: QLQLQESGPGLVKPSETLSLTCTVSGDSISSSSYYWGWIRQPPGKGLEWIGSIFYSGNTYYNPSLKSRVTISVDTSKNQFSLKLSSVTAADTAVYYCAREDDFLTDYYGAFDIWGQGTMVTVSS VL: not shown | – | 0.6 fold | – | – | 0.8 fold | 0.6 fold | 0.9 fold | – | 0.6 fold | no binding (tested: 300 nM) | no binding (tested: 300 nM) | no binding (tested: 300 nM) | no binding (tested: 300 nM)
